The assay concerns the target Sho1 SH3 (SHO1_YEAST), P40073. Put plainly: SPOT array.
Chain of Sho1 SH3 (SHO1_YEAST), P40073 (P40073 295-366): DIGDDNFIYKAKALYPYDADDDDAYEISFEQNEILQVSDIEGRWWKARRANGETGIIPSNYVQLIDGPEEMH
Molecule IVNPFIPRRPYSNV [859-872 Hypothetical ORF] showed a normalised SPOT signal, Boehringer light units (BLU); mean over the file's lines of this peptide of 530.
The molecule KDHPYDPEKDSVLK [97-110 vacuolar ATPase V1 domain subunit F (14 kDa)] came in with a normalised SPOT signal, Boehringer light units (BLU); mean over the file's lines of this peptide of 25.5.
The figure for IFDPQDPYRRAQQF [496-509 Hypothetical ORF] is 48.8.
For ILLPPLPERAYIMD [459-472 Hypothetical ORF] the value was 242.
For ILKPDIPLRNMLLR [138-151 Hypothetical ORF] the value was 159; for ISTPPPPPKMAIPA [390-403 " type II PI(4)P5-kinase (PIP4,5 kinase) similar to human PIP5K-II"], 56.4; for HNSPVAPNRYAANL [84-97 chitin synthase 2], 103.
The molecule HGVPVVPSREVTIN [440-453 protoporphyrinogen oxidase] came in with a normalised SPOT signal, Boehringer light units (BLU); mean over the file's lines of this peptide of 139.
The figure for IIFPYDPLKLGTHA [509-522 Weak similarity to Pta1p (pre-tRNA processing protein)] is 113.
Molecule GSNPDLPNKSNLKF [307-320 " Twinfilin A, an actin monomer sequestering protein"] showed a normalised SPOT signal, Boehringer light units (BLU); mean over the file's lines of this peptide of 140.
For IAHPVRPHRAITMT [631-644 dual specificity protein phosphatase] the value was 112.
The figure for IFGPSFPFRSHIDV [170-183 Possible RNA binding protein. Homolog of Whi3.] is 182.
The figure for GNTPDAPKRGFLGY [44-57 Hexose transporter] is 45.5; for KKDPNAPKRRLSAY [21-34 11-kDa nonhistone chromosomal protein] it is 152.
On to KSSPWSPYKVEKVL [161-174 Mitotic spindle protein involved in chromosome segregation.], for which the normalised SPOT signal, Boehringer light units (BLU); mean over the file's lines of this peptide amounted to 137.
For IAAPKKPRKPRQTK [241-254 RNA polymerase II mediator subunit] the value was 327; for GPPPAMPARPTATT [192-205 " contains 3 SH3 domains, interacts with Bee1p"], 89.9; for KKDPFPPPKDLLVQ [421-434 110 kDa subunit of the centromere binding factor CBF3], 64.6.
For KSFPPPPLKPGQKT [84-97 Hypothetical ORF] the value was 85.4; for IIIPPIPSKHSLLK [171-184 Hypothetical ORF], 352; for INQPSTPKKLKRKS [316-329 PLasmid Maintenance], 141.
For KFHPPEPYKGKGIY [187-200 Mitochondrial ribosomal protein MRPL6 (YmL6)] the value was 237.
GVYPSRPEKTYDYS had a normalised SPOT signal, Boehringer light units (BLU); mean over the file's lines of this peptide of 109.
The figure for KISPSAPSKDSFTK [350-363 nuclear pore protein] is 79.6.
Molecule GYDPTDPSRPRINE [1469-1482 Hypothetical ORF] came in with a normalised SPOT signal, Boehringer light units (BLU); mean over the file's lines of this peptide of 119.
For KPDPESPSKLRHYE [851-864 involved in cell wall biogenesis] the value was 216; for KIMPPTPAKKVEFI [312-325 putative GTP-exchange protein], 1220.
The molecule GSSPVSPDKRPSWK [66-79 vacuolar alpha mannosidase] showed a normalised SPOT signal, Boehringer light units (BLU); mean over the file's lines of this peptide of 60.3.
As to KNLPLNPSKKLEGK [313-326 Hypothetical ORF], the normalised SPOT signal, Boehringer light units (BLU); mean over the file's lines of this peptide was 206.
The figure for KKYPRKPKKNLNLG [336-349 Hypothetical ORF] is 224; for KRTPKIPEKDVKSD [223-236 Hypothetical ORF] it is 3960; for KFIPNKPYRQFNTW [339-352 gamma-aminobutyrate (GABA) transaminase (4-aminobutyrate aminotransferase)] it is 60.6.
For IHSPRIPSKDEFIA the value was 94.7; for IAYPFYPFKKLGRQ [32-45 Hypothetical ORF], 59.4; for IAYPGDPLRFHSHL [207-220 34kDa subunit of the tetrameric tRNA splicing endonuclease], 174.
The figure for GYDPTDPNRPKVTK [1426-1439 Hypothetical ORF] is 158.
The molecule ILSPGYPNKSFNNK [653-666 heat shock transcription factor] gave a normalised SPOT signal, Boehringer light units (BLU); mean over the file's lines of this peptide of 129.
The figure for IMPPPKPFRHGLDS [517-530 Hypothetical ORF] is 8750; for KLEPENPQKPSNTH [238-251 Hypothetical ORF] it is 94.4; for HSTPVTPRRLFTSQ [171-184 protein required for Clb2 and Ase1 degradation] it is 240.
The figure for IQHPFLPRKIPIIT [408-421 mitochondrial and cytoplasmic valyl-tRNA synthetase] is 164; for ITLPRRPAKKIQLG [41-54 Mitochondrial ribosomal protein MRPL36 (YmL36)] it is 281; for IEVPQSPTKNRVKV [61-74 (putative) involved in DNA replication] it is 141.
GRHPDMPTRVKNAY [219-232 component of cytoplasmic chaperonin complex] showed a normalised SPOT signal, Boehringer light units (BLU); mean over the file's lines of this peptide of 189.
For KNLPTIPIRLSGID [143-156 Hypothetical ORF] the value was 31800; for KKLPTGPSKKRQRK [1280-1293 transcriptional regulator], 203.
For IFPPLNPARTSLNS [172-185 homologous to Ssf2p;possibly involved in mating] the value was 87.7; for IIFPTSPTKLTFSN [112-125 Cell cycle-dependent filament between nuclei], 125; for IINPDTPHRRIFNQ [264-277 AP endonuclease], 174.
For KLRPDLPVKNFVVK [641-654 subunit of assimilatory sulfite reductase] the value was 2110.
With IFGPFGPMKEVKIL [144-157 nuclear shuttling protein with an RNA recognition motif], the normalised SPOT signal, Boehringer light units (BLU); mean over the file's lines of this peptide came out at 250.
For HPDPADPAKELELN [377-390 lysyl-tRNA synthetase] the value was 202.
The figure for IPTPSKPLKKRKKR [390-403 serine/threonine-rich membrane protein] is 86.1.
For HSSPIAPSKAKRQR [64-77 Transcription factor (fork head domain)] the value was 201; for GRIPQLPNRDEMTA [1268-1281 protein kinase], 39.3.

The record behind these values is paper PMC314469, “Protein Interaction Networks by Proteome Peptide Scanning” (PLoS Biology, 2004).
